Experimental data from publication PMC2755476, “The Sam domain of the lipid phosphatase Ship2 adopts a common model to interact with Arap3-Sam and EphA2-Sam” (BMC Structural Biology, 2009).

T1: Sam domain of Arap3 (Arap3-Sam), His-tag cut away with thrombin (human, UniProt Q8WWN8 1-80)
T1 construct: Arap3, human, residues 1 to 80, encompassing the Sam domain (residues 4 to 68); same construct as m1 after thrombin cleavage of the His-tag; A few vector residues probably remain at the N-terminus after thrombin cleavage; source: E. coli BL21-Gold (DE3), pET15b, purified (nickel column); His-tag cut with thrombin, thrombin removed on a benzamidine column; not shown: His6, N-terminal, cleaved
T1 sequence (looked up): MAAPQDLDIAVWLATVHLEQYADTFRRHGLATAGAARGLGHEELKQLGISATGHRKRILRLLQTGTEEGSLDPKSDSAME


Key:
Arap3 Sam (Homo sapiens) = Arap3 Sam (Homo sapiens) (UniProt Q8WWN8); experiment: ITC; conditions: cited from earlier work
EphA2 Sam (Homo sapiens) = EphA2 Sam (Homo sapiens) (UniProt P29317); experiment: ITC; conditions: cited from earlier work
Sequence of EphA2 Sam (Homo sapiens) (P29317 901-971): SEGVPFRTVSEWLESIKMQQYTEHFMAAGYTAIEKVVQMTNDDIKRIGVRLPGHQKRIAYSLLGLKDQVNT

[1] = molecular target: T1, Sam domain of Arap3 (Arap3-Sam), …; experiment: ITC; 25 C, VP-ITC; Shiptide (1 mM) titrated into Arap3-Sam (75 uM, His-tag cut away); 1 x PBS pH 7.7; one binding site model; repeated twice; conditions: both partners purified

Sequence of Ship2 Sam (O15357 1193-1258): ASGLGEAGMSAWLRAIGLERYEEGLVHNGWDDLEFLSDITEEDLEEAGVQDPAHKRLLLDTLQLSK

Molecule | Kd (Arap3 Sam (Homo sapiens)) [nM] | Kd (EphA2 Sam (Homo sapiens)) [nM] | Kd [1] [nM] | dH [1] [kcal/mol] | stoichiometry N [1]
Ship2 Sam (from UniProt O15357) | 100 | 750 |  |  | 
Ac-EGLVHNGWDDLEFLSDITEEDL-NH2 (region of Ship2-Sam, amino acids from 43 to 64. numbers count on: the Ship2-Sam construct, as in PDB 2K4P; source: synthetic peptide; purchased from the Protein/DNA Facility of the Medical College of Wisconsin) [Ship2-peptide Ac-EGLVHNGWDDLEFLSDITEEDL-NH2 (Shiptide)] |  |  | 40000 ± 7000 | -2.6 ± 0.922 | 0.8 ± 0.1
